The values that follow come from patent US20250250328A1.

Common to all, as to test: cell-based or functional assay
Test [1] concerns the target HIV-1 envelope 42368 (HIV-1).
In test [2] the target is HIV-1 envelope 3326_V4_C3 (HIV-1).
Test [3] concerns the target HIV-1 envelope 3637_V5_C3 (HIV-1).
The target in test [4] is HIV-1 envelope Q461_E2 (HIV-1).
For test [5], the target named is HIV-1 envelope 3468_V1_C12 (HIV-1).
Test [6] has as its target HIV-1 envelope X2088.C9 (HIV-1).
In test [7] the target is HIV-1 envelope ZM106.9 (HIV-1).
The target of test [8] is HIV-1 envelope CNE55 (HIV-1).
The target in test [9] is HIV-1 envelope TRO11 (HIV-1).
The target in test [10] is HIV-1 envelope JR-CSF (HIV-1).
The target of test [11] is HIV-1 envelope JRFL (HIV-1).
The target of test [12] is HIV-1 envelope CC1/85 (HIV-1).
For test [13], the target named is HIV-1 envelope CH119 (HIV-1).
For test [14], the target named is HIV-1 envelope CE1176 (HIV-1).
The target in test [15] is HIV-1 envelope 246F3 (HIV-1).
Test [16] addresses HIV-1 envelope X1632_S2_B10 (HIV-1).
Test [17] addresses HIV-1 envelope BJOX2000 (HIV-1).
Test [18] addresses HIV-1 envelope CNE8 (HIV-1).
Test [19] deals with HIV-1 envelope NL4-3 (HIV-1).
Test [20] has as its target HIV-1 envelope CAP45.2.00.G3 (HIV-1).
Test [21] deals with HIV-1 envelope 398F1 (HIV-1).
Test [22] addresses HIV-1 envelope T278.50 (HIV-1).
Test [23] deals with HIV-1 envelope 25710 (HIV-1).
Test [24] deals with HIV-1 envelope CE0217 (HIV-1).
Test [25] concerns the target HIV-1 envelope X2278 (HIV-1).
Test [26] deals with HIV-2 envelope HIV-2-HCC-01 (HIV-2).
The target in test [27] is HIV-2 envelope HIV-2-ATM88 (HIV-2).
In test [28] the target is HIV-1 envelope of laboratory strain NL4-3 (HIV-1).
The target in test [29] is a different panel of HIV-1 envelopes from bNAb1-resistant strains.

B1: bNAb15 (antibody, V domains shown)
VH: EVHLEESGPGLVRPSETLSLTCTASGGSIRGGEWGDSDYHWGWVRHSPEKGLEWIGSIHWRGTTHYNAPFRGRGRLSIDLSRNQFSLRLTSVTAEDTAVYYCVKHKYHDIVMVVPIAGWFDPWGQGLQVTVSS
VL: EIMMTQSPAILSVSPGDRATLSCRASQSVKNNLAWYQKRPGQAPRLLIFDTSSRASGIPARFSGGGSGTEFTLTVNSMQSEDFATYYCQQYEEWPRTFGQGTKVEIKR
As to B1, the IC50, PSV assay in test [1] was > 500 nM; in test [2] it was > 500 nM; in test [3] it was 5 nM; in [4] it was > 500 nM; in [5] it was > 500 nM; in test [6], 2.58 nM. Moreover, in [7], the IC50, PSV assay was 1.34 nM.

B2: bNAb5 (antibody, V domains shown)
VH: QLQMQESGPGLVKPSETLSLSCTVSGDSIRGGEWGDKDYHWGWVRHSAGKGLEWIGSIHWRGTTHYKESLRRRVSMSIDTSRNWFSLRLASVTAADTAVYFCARHRHHDVFMLVPIAGWFDVWGPGVQVTVSS
VL: EIVMTQSPDTLSVSPGETVTLSCRASQNINKNLAWYQYKPGQSPRLVIFETYSKIAAFPARFVASGSGTEFTLTINNMQSEDVAVYYCQQYEEWPRTFGQGTKVDIKR
Turning to B2, the IC50 (nM), PSV assay in test [8] is 3300 nM; in [9], 0.39 nM; in test [10], 0.64 nM; in [1] it was > 500 nM; in test [11], 58.2 nM; in test [12], > 500 nM. The IC50 (nM), PSV assay is 63.5 nM in test [13]; 57.1 nM in test [14]; 40.9 nM in test [15]; > 500 nM in test [16]; 127 nM in test [17]; 51.4 nM in [18]. The IC50 (nM), PSV assay in [19] was 2.62 nM; in test [20], > 500 nM; in test [21] it was 1.83 nM; in test [22] it was 96.1 nM; in test [6] it was 0.17 nM; in [23], 8.1 nM. For the same molecule, the figures for the IC50 (nM), PSV assay in test [24], in test [25] and in test [7] were 410 nM, 9.53 nM and 2.04 nM, respectively.

B3: bNAb18 (antibody, V domains shown)
VH: QVQLVQSGAEVRKPGSSVTISCKPVGGTFTNFAIHWVRQAPGQGLEWVGGRVPVVGIYKYGKKFHDRLRLYEDDPMKTVFLELRSLTSDDTGVYYCTRWRGCGMCPYDTSSYYNDASDVWGPGTKVIVSA
VL: EIVLTQSPVTLSLSSGETGTLSCRASQNISSSWIAWYQQRRGQVPRLLISAASARAAGIPDRFTGRGSGTDFTLTITRLEPEDFGVYSCQYYGGSFFTFGPGTQVDVKR
Regarding B3, the IC50, PSV assay is > 500 nM in test [1]; > 500 nM in [2]; > 500 nM in [3]; > 500 nM in test [4]; > 500 nM in [5]; 0.2 nM in [6]. Besides, the IC50, PSV assay in test [7] was found to be 0.11 nM.

B4: bNAb14 (antibody, V domains shown)
VH: QLQLQESGPGLVKPSETLSLTCTVSGGSMRGTDWGENDFHYGWIRQSSAKGLEWIGSIHWRGRTTHYKTSFRSRATLSIDTSNNRFSLTFSFVTAADTAVYYCARHKYHDIFRVVPVAGWFDPWGQGLLVTVSS
VL: EIVMTQSPPTLSVSPGETATLSCRASQNVKNNLAWYQLKPGQAPRLLIFDASSRAGGIPDRFSGSGYGTDFTLTVNSVQSEDFGDYFCQQYEEWPRTFGQGTKVDIKR
On to B4, for which the IC50, PSV assay in test [1] was > 500 nM; in [2] it was > 500 nM; in test [3], > 500 nM; in test [4], > 500 nM; in test [5], > 500 nM; in test [6] it was 2.79 nM. For the same molecule, in test [7], the IC50, PSV assay came to 1.26 nM.

B5: bNAb3 (antibody, V domains shown)
VH: QVQLRESGPGLVKPSETLSLSCTVSNDSRPSDHSWTWVRQSPGKALEWIGDIHYNGATTYNPSLRSRVRIELDQSIPRFSLKMTSMTAADTGMYYCARNAIRIYGVVALGEWFHYGMDVWGQGTAVTVSS
VL: SSELTQPPSVSVSPGQTARITCSGAPLTSRFTYWYRQKPGQAPVLIISRSSQRSSGWSGRFSASWSGTTVTLTIRGVQADDEADYYCQSSDTSDSYKMFGGGTKLTVLG
Consider B5, for which the IC50 (nM), PSV assay (ACTOne cells) in test [1] was > 500 nM; in test [12], 38.3 nM; in [19], 0.15 nM; in [20], > 500 nM; in test [22], 0.01 nM; in test [6] it was 0.03 nM. Moreover, the IC50 (nM), PSV assay (ACTOne cells) in test [7] was found to be 0.03 nM.

B6: bNAb19 (antibody, V domains shown)
VH: EVQLVESGGGLVKAGGSLILSCGVSNFRISAHTMNWVRRVPGGGLEWVASISTSSTYRDYADAVKGRFTVSRDDLEDFVYLQMHKMRVEDTAIYYCARKGSDRLSDNDPFDAWGPGTVVTVSP
VL: DVVMTQSPSTLSASVGDTITITCRASQSIETWLAWYQQKPGKAPKLLIYKASTLKTGVPSRFSGSGSGTEFTLTISGLQFDDFATYHCQHYAGYSATFGQGTRVEIKR
For B6, the IC50, PSV assay in test [1], in test [2], in test [3], in test [4], in [5] and in test [6] was > 300 nM throughout. Further, the IC50, PSV assay in [7] is > 300 nM.

B7: bNAb16 (antibody, V domains shown)
VH: EVQLVESGGGLVKPGGSLRLTCVASGFTFSDVWLNWVRQAPGKGLEWVGRIKSRTDGGTTDYAASVKGRFTISRDDSKNTLYLQMNSLKTEDTAVYSCTTDGFIMIRGVSEDYYYYYMDVWGKGTTVTVSS
VL: QSVLTQPPSVSAAPGQKVTISCSGSSSNIGNNYVLWYQQFPGTAPKLLIYGNNKRPSGIPDRFSGSKSGTSATLGITGLQTGDEADYFCATWDSGLSADWVFGGGTKLTVLG
B7: the IC50, PSV assay in test [1] was > 500 nM; in test [2] it was > 500 nM; in [3], > 500 nM; in [4] it was > 500 nM; in [5], > 500 nM; in [6] it was 289 nM. For the same molecule, the IC50, PSV assay in test [7] is > 500 nM.

B8: bNAb1 (antibody, V domains shown)
VH: QPQLQESGPTLVEASETLSLTCAVSGDSTAACNSFWGWVRQPPGKGLEWVGSLSHCASYWNRGWTYHNPSLKSRLTLALDTPKNLVFLKLNSVTAADTATYYCARFGGEVLRYTDWPKPAWVDLWGRGTLVTVSS
VL: QSALTQPPSASGSPGQSITISCTGTSNNFVSWYQQHAGKAPKLVIYDVNKRPSGVPDRFSGSKSGNTASLTVSGLQTDDEAVYYCGSLVGNWDVIFGGGTKLTVLG
For the molecule B8, the IC50 (nM), PSV assay (ACTOne cells) in test [1] was > 500 nM; in test [12], 0.03 nM; in test [19], 131 nM; in test [20] it was > 500 nM; in test [22], 0.17 nM; in test [6] it was 402 nM. The IC50 (nM), PSV assay (ACTOne cells) in test [7] is 0.07 nM. Moreover, the IC50, PSV assay in test [26] and in [27] was > 500 nM throughout. Also, the EC50 (replicating virus assay) in test [28] is > 500 nM. In addition, the geometric mean IC50, PSV assay (ACTOne), FIG. 4B in test [29] was > 10 nM.

B9: bNAb23 (antibody, V domains shown)
VH: QVQLLESGPGLVRPSETLTLTCSVFNSRVSGYYYSWIRQPPGRGLEWIASTHFSLRPSRNPSLLSRVTTSIDTERYQVFLNMRSVTAADTAVYFCARGDASGWRADYFPHWGQGTLVVVSS
VL: QSVLTQPPSASGSPGQSVTISCTGTSSDIGASDYVSWYQQYPGEAPKVIIYDVTKRPSGVPDRFSGSKSGTTASLTVSGLQAEDEADYYCSSDAGRHTLLFGGGTKVTVLG
With B9, the IC50, PSV assay was > 500 nM in [1]; 15.3 nM in test [2]; > 500 nM in [3]; > 500 nM in test [4]; > 500 nM in [5]; > 500 nM in test [6]. The same molecule displayed an IC50, PSV assay in [7] of 17.4 nM.
